Laboratory results from paper PMC8606595, “Chimeric Antigen Receptor T Cells With Modified Interleukin-13 Preferentially Recognize IL13Rα2 and Suppress Malignant Glioma: A Preclinical Study” (Frontiers in Immunology, 2021).

Biological target: Human IL13Rα2 (human, UniProt Q14627 27-380)
Assay: SPR; Biacore T200; human IL13Rα1 (2,800 RU) or IL13Rα2 (3,100 RU) amine-coupled to CM5 chips in 10 mM sodium acetate pH 4.5; IL13-Fc proteins injected in twofold serial dilutions at constant flow (30 ml/min as printed); association 180 s, dissociation 600 s; regeneration 10 mM glycine pH 2.0; 1:1 fitting model
Conditions: both partners purified

Sequence of Human IL13Rα2 (Q14627 27-380): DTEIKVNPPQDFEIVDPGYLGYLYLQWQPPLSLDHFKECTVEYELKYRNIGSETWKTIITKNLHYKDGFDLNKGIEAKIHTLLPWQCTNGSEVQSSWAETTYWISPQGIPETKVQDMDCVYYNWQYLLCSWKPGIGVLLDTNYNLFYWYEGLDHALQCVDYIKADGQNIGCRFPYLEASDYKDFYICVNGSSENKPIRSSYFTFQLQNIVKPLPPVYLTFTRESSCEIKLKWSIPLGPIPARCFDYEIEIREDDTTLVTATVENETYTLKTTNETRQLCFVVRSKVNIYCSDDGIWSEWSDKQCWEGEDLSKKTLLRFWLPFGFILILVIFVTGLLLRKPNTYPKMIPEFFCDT

Kd: 7.4 nM
koff: 1.26e-05 s⁻¹
kon: 1670 M⁻¹ s⁻¹
B1: YYB-103 IL13 (modified IL13.E13K.R66D.S69D.R109K, antigen binding domain of YYB-103) fused with human Fc (Fc fusion)
chain: SPGPVPPSTALRKLIEELVNITQNQKAPLCNGSMVWSINLTAGMYCAALESLINVSGCSAIEKTQDMLDGFCPHKVSAGQFSSLHVRDTKIEVAQFVKDLLLHLKKLFKEGQFN
modifications: Fused to human Fc (carrier left out; probably dimeric through Fc). Numbering offset +32 is the only one that fits E13, R66, S69 and R109 together. / Amine-coupled to CM5 chip; extracellular domain …
